{"source": "patent US20260116991A1", "binders": {"B1": {"name": "F1.120.16 human-murine chimeric antibody (antibody, human IgG1, kappa, V domains shown)", "VH": "EFQLQQSGPELVKPGASVKISCKASGYSFTDYNMNWVKQSNGKSLEWIGLIHPKFSVTSYNRKFKGKATLTVDQSSSTAYMQLNSLTSEDSAVYYCARWAGDYFDYWGQGTTLTVSS", "VL": "DIVLTQSPATLSVTPGDSVSLSCRASQSISNNLHWYQQKSHESPRLLIKYASQSISGIPSRFSGSGSGTDFTLTINSVETEDFGMYFCQQSNSWPQTFGGGTKLEIKR"}}, "target": "murine GPC3-his protein (Sino Biological, Cat. No. 50989-M08B) (murine) (UniProt Q8CFZ4)", "sequence (Q8CFZ4 25-558 limits assumed)": "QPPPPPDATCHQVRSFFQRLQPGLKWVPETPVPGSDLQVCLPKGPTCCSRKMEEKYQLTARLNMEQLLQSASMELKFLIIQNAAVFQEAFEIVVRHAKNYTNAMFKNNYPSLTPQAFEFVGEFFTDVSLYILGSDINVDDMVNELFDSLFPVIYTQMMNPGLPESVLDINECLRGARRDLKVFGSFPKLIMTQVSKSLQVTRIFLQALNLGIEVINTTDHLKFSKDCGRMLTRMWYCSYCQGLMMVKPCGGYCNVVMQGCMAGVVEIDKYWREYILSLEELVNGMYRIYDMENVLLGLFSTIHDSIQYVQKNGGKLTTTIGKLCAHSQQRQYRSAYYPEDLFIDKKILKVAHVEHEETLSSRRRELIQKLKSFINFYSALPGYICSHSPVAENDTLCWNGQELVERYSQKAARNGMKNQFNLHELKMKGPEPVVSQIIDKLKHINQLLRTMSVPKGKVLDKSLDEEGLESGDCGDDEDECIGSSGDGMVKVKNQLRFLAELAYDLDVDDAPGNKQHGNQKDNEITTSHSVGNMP", "assay": "ELISA, coated murine GPC3-His", "data": [{"binder": "B1", "values": [{"measurement": "OD450 at 0.0001 nM antibody", "value": 0.05, "unit": "OD450 nm"}, {"measurement": "OD450 at 0.001 nM antibody", "value": 0.07, "unit": "OD450 nm"}, {"measurement": "OD450 at 0.01 nM antibody", "value": 0.16, "unit": "OD450 nm"}, {"measurement": "OD450 at 0.1 nM antibody", "value": 0.72, "unit": "OD450 nm"}, {"measurement": "OD450 at 1 nM antibody", "value": 0.76, "unit": "OD450 nm"}, {"measurement": "OD450 at 10 nM antibody", "value": 0.8, "unit": "OD450 nm"}, {"measurement": "OD450 at 100 nM antibody", "value": 0.54, "unit": "OD450 nm"}]}]}
